# *1 amine or outer side, *2 acyl side, *3 side chain or, on linkers, in order; H or OH if unused. Side-chain parts run from the residue outwards. The star is where a group is joined. C18 diacid = O=C(O)CCCCCCCCCCCCCCCCC(=O)*; γGlu = O=C(O)[C@H](CCC(=O)[*:2])N[*:1]; Isovaleryl = CC(C)CC(=O)*; AEEA = NCCOCCOCC(=O)O
# T1: human neuropeptide Y2 receptor (human, UniProt P49146 1-381)
# T1 construct: whole, on cells; also called hNPY2 receptor; hNPY2-R
# T1 sequence (looked up): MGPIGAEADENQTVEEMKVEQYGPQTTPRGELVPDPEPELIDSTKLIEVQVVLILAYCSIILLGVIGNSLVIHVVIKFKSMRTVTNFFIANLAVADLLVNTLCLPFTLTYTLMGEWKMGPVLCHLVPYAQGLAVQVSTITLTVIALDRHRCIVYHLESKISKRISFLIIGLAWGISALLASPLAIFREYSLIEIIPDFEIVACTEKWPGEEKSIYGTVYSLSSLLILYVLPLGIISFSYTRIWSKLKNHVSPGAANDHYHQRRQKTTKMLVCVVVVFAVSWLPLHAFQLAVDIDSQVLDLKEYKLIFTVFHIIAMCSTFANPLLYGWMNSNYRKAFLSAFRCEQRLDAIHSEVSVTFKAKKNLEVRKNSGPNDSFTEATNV
# Molecular target: T1, human neuropeptide Y2 receptor
# Test: radioligand competition (125I-PYY(1-36)), hNPY2R membranes
# Summary of the method: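 Commercial human Y2 receptor membranes (0.5 μg protein/well) were incubated with peptide for 2 h at room temperature in 50 mM HEPES, 5 mM MgCl₂, 1 mM CaCl₂, pH 7.4, with 0.2% ovalbumin. Bound radioligand was separated on PEI-soaked GF/C filters and counted by scintillation, and IC₅₀ came from nonlinear sigmoidal regression.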
row,Binder,Ki [nM]
1,Isovaleryl-APEK([AEEA-AEEA-γGlu-C18 diacid])PEEDASPEELQRYYISLRHYYNWLTRQRY-NH2 (SMILES CC[C@H](C)[C@H](NC(=O)[C@H](Cc1ccc(O)cc1)NC(=O)[C@H](Cc1ccc(O)cc1)NC(=O)[C@H](CCCNC(=N)N)NC(=O)[C@H](CCC(N)=O)NC(=O)[C@H](CC(C)C)NC(=O)[C@H](CCC(=O)O)NC(=O)[C@H](CCC(=O)O)NC(=O)[C@@H]1CCCN1C(=O)[C@H](CO)NC(=O)[C@H](C)NC(=O)[C@H](CC(=O)O)NC(=O)[C@H](CCC(=O)O)NC(=O)[C@H](CCC(=O)O)NC(=O)[C@@H]1CCCN1C(=O)[C@H](CCCCNC(=O)COCCOCCNC(=O)COCCOCCNC(=O)CC[C@H](NC(=O)CCCCCCCCCCCCCCCCC(=O)O)C(=O)O)NC(=O)[C@H](CCC(=O)O)NC(=O)[C@@H]1CCCN1C(=O)[C@H](C)NC(=O)CC(C)C)C(=O)N[C@@H](CO)C(=O)N[C@@H](CC(C)C)C(=O)N[C@@H](CCCNC(=N)N)C(=O)N[C@@H](Cc1c[nH]cn1)C(=O)N[C@@H](Cc1ccc(O)cc1)C(=O)N[C@@H](Cc1ccc(O)cc1)C(=O)N[C@@H](CC(N)=O)C(=O)N[C@@H](Cc1c[nH]c2ccccc12)C(=O)N[C@@H](CC(C)C)C(=O)N[C@H](C(=O)N[C@@H](CCCNC(=N)N)C(=O)N[C@@H](CCC(N)=O)C(=O)N[C@@H](CCCNC(=N)N)C(=O)N[C@@H](Cc1ccc(O)cc1)C(N)=O)[C@@H](C)O) [Compound 191],1.7
2,Isovaleryl-APEK([AEEA-AEEA-γGlu-C18 diacid])PEEEASPEELQRYYVELRHYYNWLTRQRY-NH2 (SMILES CC(C)CC(=O)N[C@@H](C)C(=O)N1CCC[C@H]1C(=O)N[C@@H](CCC(=O)O)C(=O)N[C@@H](CCCCNC(=O)COCCOCCNC(=O)COCCOCCNC(=O)CC[C@H](NC(=O)CCCCCCCCCCCCCCCCC(=O)O)C(=O)O)C(=O)N1CCC[C@H]1C(=O)N[C@@H](CCC(=O)O)C(=O)N[C@@H](CCC(=O)O)C(=O)N[C@@H](CCC(=O)O)C(=O)N[C@@H](C)C(=O)N[C@@H](CO)C(=O)N1CCC[C@H]1C(=O)N[C@@H](CCC(=O)O)C(=O)N[C@@H](CCC(=O)O)C(=O)N[C@@H](CC(C)C)C(=O)N[C@@H](CCC(N)=O)C(=O)N[C@@H](CCCNC(=N)N)C(=O)N[C@@H](Cc1ccc(O)cc1)C(=O)N[C@@H](Cc1ccc(O)cc1)C(=O)N[C@H](C(=O)N[C@@H](CCC(=O)O)C(=O)N[C@@H](CC(C)C)C(=O)N[C@@H](CCCNC(=N)N)C(=O)N[C@@H](Cc1c[nH]cn1)C(=O)N[C@@H](Cc1ccc(O)cc1)C(=O)N[C@@H](Cc1ccc(O)cc1)C(=O)N[C@@H](CC(N)=O)C(=O)N[C@@H](Cc1c[nH]c2ccccc12)C(=O)N[C@@H](CC(C)C)C(=O)N[C@H](C(=O)N[C@@H](CCCNC(=N)N)C(=O)N[C@@H](CCC(N)=O)C(=O)N[C@@H](CCCNC(=N)N)C(=O)N[C@@H](Cc1ccc(O)cc1)C(N)=O)[C@@H](C)O)C(C)C) [Compound 185],3.58
3,Isovaleryl-APEK([AEEA-AEEA-γGlu-C18 diacid])PEEAASPEELQRYYVTLRHYYNWLTRQRY-NH2 (SMILES CC(C)CC(=O)N[C@@H](C)C(=O)N1CCC[C@H]1C(=O)N[C@@H](CCC(=O)O)C(=O)N[C@@H](CCCCNC(=O)COCCOCCNC(=O)COCCOCCNC(=O)CC[C@H](NC(=O)CCCCCCCCCCCCCCCCC(=O)O)C(=O)O)C(=O)N1CCC[C@H]1C(=O)N[C@@H](CCC(=O)O)C(=O)N[C@@H](CCC(=O)O)C(=O)N[C@@H](C)C(=O)N[C@@H](C)C(=O)N[C@@H](CO)C(=O)N1CCC[C@H]1C(=O)N[C@@H](CCC(=O)O)C(=O)N[C@@H](CCC(=O)O)C(=O)N[C@@H](CC(C)C)C(=O)N[C@@H](CCC(N)=O)C(=O)N[C@@H](CCCNC(=N)N)C(=O)N[C@@H](Cc1ccc(O)cc1)C(=O)N[C@@H](Cc1ccc(O)cc1)C(=O)N[C@H](C(=O)N[C@H](C(=O)N[C@@H](CC(C)C)C(=O)N[C@@H](CCCNC(=N)N)C(=O)N[C@@H](Cc1c[nH]cn1)C(=O)N[C@@H](Cc1ccc(O)cc1)C(=O)N[C@@H](Cc1ccc(O)cc1)C(=O)N[C@@H](CC(N)=O)C(=O)N[C@@H](Cc1c[nH]c2ccccc12)C(=O)N[C@@H](CC(C)C)C(=O)N[C@H](C(=O)N[C@@H](CCCNC(=N)N)C(=O)N[C@@H](CCC(N)=O)C(=O)N[C@@H](CCCNC(=N)N)C(=O)N[C@@H](Cc1ccc(O)cc1)C(N)=O)[C@@H](C)O)[C@@H](C)O)C(C)C) [Compound 184],2.06

# The remaining lines, values ahead:
row,Ki [nM],Binder
1,0.7,Isovaleryl-APEK([AEEA-AEEA-γGlu-C18 diacid])PPEDASPEELQRYYVSLRHYYNWLTRQRY-NH2 (SMILES CC(C)CC(=O)N[C@@H](C)C(=O)N1CCC[C@H]1C(=O)N[C@@H](CCC(=O)O)C(=O)N[C@@H](CCCCNC(=O)COCCOCCNC(=O)COCCOCCNC(=O)CC[C@H](NC(=O)CCCCCCCCCCCCCCCCC(=O)O)C(=O)O)C(=O)N1CCC[C@H]1C(=O)N1CCC[C@H]1C(=O)N[C@@H](CCC(=O)O)C(=O)N[C@@H](CC(=O)O)C(=O)N[C@@H](C)C(=O)N[C@@H](CO)C(=O)N1CCC[C@H]1C(=O)N[C@@H](CCC(=O)O)C(=O)N[C@@H](CCC(=O)O)C(=O)N[C@@H](CC(C)C)C(=O)N[C@@H](CCC(N)=O)C(=O)N[C@@H](CCCNC(=N)N)C(=O)N[C@@H](Cc1ccc(O)cc1)C(=O)N[C@@H](Cc1ccc(O)cc1)C(=O)N[C@H](C(=O)N[C@@H](CO)C(=O)N[C@@H](CC(C)C)C(=O)N[C@@H](CCCNC(=N)N)C(=O)N[C@@H](Cc1c[nH]cn1)C(=O)N[C@@H](Cc1ccc(O)cc1)C(=O)N[C@@H](Cc1ccc(O)cc1)C(=O)N[C@@H](CC(N)=O)C(=O)N[C@@H](Cc1c[nH]c2ccccc12)C(=O)N[C@@H](CC(C)C)C(=O)N[C@H](C(=O)N[C@@H](CCCNC(=N)N)C(=O)N[C@@H](CCC(N)=O)C(=O)N[C@@H](CCCNC(=N)N)C(=O)N[C@@H](Cc1ccc(O)cc1)C(N)=O)[C@@H](C)O)C(C)C) [Compound 183]
2,2.08,Isovaleryl-APEK([AEEA-AEEA-γGlu-C18 diacid])PEEDASEAELQRYYVSLRHYYNWLTRQRY-NH2 (SMILES CC(C)CC(=O)N[C@@H](C)C(=O)N1CCC[C@H]1C(=O)N[C@@H](CCC(=O)O)C(=O)N[C@@H](CCCCNC(=O)COCCOCCNC(=O)COCCOCCNC(=O)CC[C@H](NC(=O)CCCCCCCCCCCCCCCCC(=O)O)C(=O)O)C(=O)N1CCC[C@H]1C(=O)N[C@@H](CCC(=O)O)C(=O)N[C@@H](CCC(=O)O)C(=O)N[C@@H](CC(=O)O)C(=O)N[C@@H](C)C(=O)N[C@@H](CO)C(=O)N[C@@H](CCC(=O)O)C(=O)N[C@@H](C)C(=O)N[C@@H](CCC(=O)O)C(=O)N[C@@H](CC(C)C)C(=O)N[C@@H](CCC(N)=O)C(=O)N[C@@H](CCCNC(=N)N)C(=O)N[C@@H](Cc1ccc(O)cc1)C(=O)N[C@@H](Cc1ccc(O)cc1)C(=O)N[C@H](C(=O)N[C@@H](CO)C(=O)N[C@@H](CC(C)C)C(=O)N[C@@H](CCCNC(=N)N)C(=O)N[C@@H](Cc1c[nH]cn1)C(=O)N[C@@H](Cc1ccc(O)cc1)C(=O)N[C@@H](Cc1ccc(O)cc1)C(=O)N[C@@H](CC(N)=O)C(=O)N[C@@H](Cc1c[nH]c2ccccc12)C(=O)N[C@@H](CC(C)C)C(=O)N[C@H](C(=O)N[C@@H](CCCNC(=N)N)C(=O)N[C@@H](CCC(N)=O)C(=O)N[C@@H](CCCNC(=N)N)C(=O)N[C@@H](Cc1ccc(O)cc1)C(N)=O)[C@@H](C)O)C(C)C) [Compound 189]
3,2.76,Isovaleryl-APEK([AEEA-AEEA-γGlu-C18 diacid])PEEDASPEELQRYYVSLRHQYNWLTRQRY-NH2 (SMILES CC(C)CC(=O)N[C@@H](C)C(=O)N1CCC[C@H]1C(=O)N[C@@H](CCC(=O)O)C(=O)N[C@@H](CCCCNC(=O)COCCOCCNC(=O)COCCOCCNC(=O)CC[C@H](NC(=O)CCCCCCCCCCCCCCCCC(=O)O)C(=O)O)C(=O)N1CCC[C@H]1C(=O)N[C@@H](CCC(=O)O)C(=O)N[C@@H](CCC(=O)O)C(=O)N[C@@H](CC(=O)O)C(=O)N[C@@H](C)C(=O)N[C@@H](CO)C(=O)N1CCC[C@H]1C(=O)N[C@@H](CCC(=O)O)C(=O)N[C@@H](CCC(=O)O)C(=O)N[C@@H](CC(C)C)C(=O)N[C@@H](CCC(N)=O)C(=O)N[C@@H](CCCNC(=N)N)C(=O)N[C@@H](Cc1ccc(O)cc1)C(=O)N[C@@H](Cc1ccc(O)cc1)C(=O)N[C@H](C(=O)N[C@@H](CO)C(=O)N[C@@H](CC(C)C)C(=O)N[C@@H](CCCNC(=N)N)C(=O)N[C@@H](Cc1c[nH]cn1)C(=O)N[C@@H](CCC(N)=O)C(=O)N[C@@H](Cc1ccc(O)cc1)C(=O)N[C@@H](CC(N)=O)C(=O)N[C@@H](Cc1c[nH]c2ccccc12)C(=O)N[C@@H](CC(C)C)C(=O)N[C@H](C(=O)N[C@@H](CCCNC(=N)N)C(=O)N[C@@H](CCC(N)=O)C(=O)N[C@@H](CCCNC(=N)N)C(=O)N[C@@H](Cc1ccc(O)cc1)C(N)=O)[C@@H](C)O)C(C)C) [Compound 187]
